Experimental data reported in US20150344570A1 (published 2015).

T1: FcγRIIb extracellular domain with C-terminal His tag (human, UniProt P31994 43-217)
T1 construct: extracellular domain; also called 2b; FcgRIIb
T1 sequence (looked up): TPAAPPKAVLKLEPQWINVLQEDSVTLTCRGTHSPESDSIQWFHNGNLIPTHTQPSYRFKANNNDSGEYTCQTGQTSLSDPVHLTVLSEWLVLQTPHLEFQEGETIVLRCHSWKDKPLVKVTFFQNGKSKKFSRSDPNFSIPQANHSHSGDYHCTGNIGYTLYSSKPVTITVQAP

T2: FcγRIIa H (FcgRIIa type H, His at position 131), extracellular domain with C-terminal His tag (human, UniProt P12318 34-217)
T2 construct: extracellular domain; also called 2aH; FcgRIIa H; not shown: His tag at the C terminus
T2 sequence (looked up): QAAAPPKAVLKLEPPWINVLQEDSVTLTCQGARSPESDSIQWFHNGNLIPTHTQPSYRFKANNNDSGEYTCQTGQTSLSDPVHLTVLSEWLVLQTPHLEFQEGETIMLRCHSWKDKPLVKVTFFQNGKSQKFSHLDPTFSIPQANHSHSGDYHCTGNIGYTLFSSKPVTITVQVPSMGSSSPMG

T3: FcγRIIb, extracellular domain with C-terminal His tag (human, UniProt P31994 43-217)
T3 construct: extracellular domain; also called 2b; FcgRIIb; not shown: His tag at the C terminus
T3 sequence (looked up): T1 sequence (looked up)

B1: GpH7-A5/GpH7-B3 variant Y300_08L/GpL16-k0 (antibody, human IgG1, kappa)
heavy 1: not shown
heavy 2: not shown
light: DIVMTQSPLSLPVTPGEPASISCQASESLVHSNRNTYLHWYLQKPGQSPQLLIYKVSNRFSGVPDRFSGSGSGTDFTLKISRVEAEDVGVYYCSQNTHVPPTFGQGTKVEIERTVAAPSVFIFPPSDEQLKSGTASVVCLLNNFYPREAKVQWKVDNALQSGNSQESVTEQDSKDSTYSLSSTLTLSKADYEKHKVYACEVTHQGLSSPVTKSFNRGEC
notes: also called He Ab
B2: GpH7-A5/GpH7-B3 variant N325_09D/GpL16-k0 (antibody, human IgG1, kappa)
heavy 1: not shown
heavy 2: not shown
light: B1 light
notes: He Ab; alteration in one H chain only; also called He Ab
B3: GpH7-A5/GpH7-B3 variant L328_09D/GpL16-k0 (antibody, human IgG1, kappa)
heavy 1: not shown
heavy 2: not shown
light: B1 light
notes: as for B2
B4: GpH7-A5/GpH7-B3 variant A327_10E/GpL16-k0 (antibody, human IgG1, kappa)
heavy 1: not shown
heavy 2: not shown
light: B1 light
notes: as for B2
B5: GpH7-A5/GpH7-B3 variant N325_13S/GpL16-k0 (antibody, human IgG1, kappa)
heavy 1: not shown
heavy 2: not shown
light: B1 light
notes: as for B2
B6: GpH7-A5/GpH7-B3 variant S337_15Y/GpL16-k0 (antibody, human IgG1, kappa)
heavy 1: not shown
heavy 2: not shown
light: B1 light
notes: as for B2
B7: GpH7-A5/GpH7-B3 variant L328_03V/GpL16-k0 (antibody, human IgG1, kappa)
heavy 1: not shown
heavy 2: not shown
light: B1 light
notes: as for B2
B8: GpH7-A5/GpH7-B3 variant K334_10E/GpL16-k0 (antibody, human IgG1, kappa)
heavy 1: not shown
heavy 2: not shown
light: B1 light
notes: as for B2
B9: GpH7-A5/GpH7-B3 variant L328_10E/GpL16-k0 (antibody, human IgG1, kappa)
heavy 1: not shown
heavy 2: not shown
light: B1 light
notes: as for B2
B10: GpH7-A5/GpH7-B3 variant A330_05P/GpL16-k0 (antibody, human IgG1, kappa)
heavy 1: not shown
heavy 2: not shown
light: B1 light
notes: as for B2
B11: GpH7-A5/GpH7-B3 variant L328_07I/GpL16-k0 (antibody, human IgG1, kappa)
heavy 1: not shown
heavy 2: not shown
light: B1 light
notes: as for B2
B12: GpH7-A5/GpH7-B3 variant K334_20W/GpL16-k0 (antibody, human IgG1, kappa)
heavy 1: not shown
heavy 2: not shown
light: B1 light
notes: as for B2
B13: GpH7-A5/GpH7-B3 variant K334_05P/GpL16-k0 (antibody, human IgG1, kappa)
heavy 1: not shown
heavy 2: not shown
light: B1 light
notes: as for B2
B14: GpH7-A5/GpH7-B3 variant K334_18N/GpL16-k0 (antibody, human IgG1, kappa)
heavy 1: not shown
heavy 2: not shown
light: B1 light
notes: as for B2
B15: GpH7-A5/GpH7-B3 variant P331_10E/GpL16-k0 (antibody, human IgG1, kappa)
heavy 1: not shown
heavy 2: not shown
light: B1 light
notes: as for B2
B16: GpH7-A5/GpH7-B3 variant N325_07I/GpL16-k0 (antibody, human IgG1, kappa)
heavy 1: not shown
heavy 2: not shown
light: B1 light
notes: as for B2
B17: GpH7-A5/GpH7-B3 variant A330_01G/GpL16-k0 (antibody, human IgG1, kappa)
heavy 1: not shown
heavy 2: not shown
light: B1 light
notes: as for B2
B18: GpH7-A5/GpH7-B3 variant A327_01G/GpL16-k0 (antibody, human IgG1, kappa)
heavy 1: not shown
heavy 2: not shown
light: B1 light
notes: as for B2
B19: GpH7-A5/GpH7-B3 variant L328_19Q/GpL16-k0 (antibody, human IgG1, kappa)
heavy 1: not shown
heavy 2: not shown
light: B1 light
notes: as for B2
B20: GpH7-A5/GpH7-B3 variant K326_16H/GpL16-k0 (antibody, human IgG1, kappa)
heavy 1: not shown
heavy 2: not shown
light: B1 light
notes: as for B2

Assays:
[1] = biological target: T4, FcγRIIIa extracellular domain with C-terminal His tag (human, UniProt P08637 17-208); assay: SPR, binding relative to GpH7-A5/GpH7-B3/GpL16-k0 = 100
T4 construct: extracellular domain; also called 3a; FcgRIIIa
T4 sequence (P08637 17-208): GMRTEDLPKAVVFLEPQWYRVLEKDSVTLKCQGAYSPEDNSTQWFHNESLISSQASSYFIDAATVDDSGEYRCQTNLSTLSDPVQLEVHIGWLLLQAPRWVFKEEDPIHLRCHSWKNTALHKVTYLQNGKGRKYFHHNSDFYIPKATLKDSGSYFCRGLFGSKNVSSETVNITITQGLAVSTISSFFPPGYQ
Procedure: (§1) The heterodimerized antibodies He Abs in which one of the H chains was introduced with an alteration were assayed for their binding activities to each activating FcγR and inhibitory FcγR according to the method described in Example 4. […] The activating FcγRs in FIGS. 26, 27, 28, and 29 are FcγRIa, FcγRIIa (R), FcγRIIa (H), and FcγRIIIa, respectively.
(§2) Analysis of interaction between objective antibody and the FcγR was carried out using Biacore T100 (GE Healthcare). HBS-EP+ (GE Healthcare) was used as the running buffer, and the measurement temperature was set to 25° C. Chips produced by immobilizing the antigen peptide by the amine coupling method to a Series S Sencor Chip CM5 (GE Healthcare), or alternatively, chips produced by allowing preliminarily biotinylated antigen peptides to interact with and immobilize onto a Series S Sensor Chip SA (certified) (GE Healthcare) were used. Antibodies of interest were captured onto an antigen peptide-immobilized chip, and allowed to interact to each FcγR diluted with running buffer. To regenerate and repeatedly use the chip, the antibodies captured on the chip were washed off by reacting 10 mM glycine-HCl, pH 1.5.

[2] = biological target: T1, FcγRIIb extracellular domain with …; assay: as above
Procedure: as §1, §2

[3] = biological target: T2, FcγRIIa H (FcgRIIa type H, His at …); assay: SPR (Biacore), relative binding, GpH7-A5/GpH7-B3/GpL16-k0 = 100
[4] = biological target: T3, FcγRIIb, extracellular domain with …; assay: as above

Row | Binder | He/Con_3a [1] | He/Con_2b [2] | He/Con_2aH [3] | He/Con_2b [4]
1 | B1 | 105 % of control | 73.6 % of control | – | –
2 | B2 | – | – | 53.1 % of control | 124 % of control
3 | B3 | – | – | 58.5 % of control | 199 % of control
4 | B4 | – | – | 91.3 % of control | 140 % of control
5 | B5 | – | – | 79.7 % of control | 177 % of control
6 | B6 | – | – | 99.4 % of control | 100 % of control
7 | B7 | – | – | 97.8 % of control | 126 % of control
8 | B8 | – | – | 98.2 % of control | 114 % of control
9 | B9 | – | – | 55.5 % of control | 172 % of control
10 | B10 | – | – | 85.7 % of control | 137 % of control
11 | B11 | – | – | 93.9 % of control | 160 % of control
12 | B12 | – | – | 97.6 % of control | 104 % of control
13 | B13 | – | – | 97.6 % of control | 105 % of control
14 | B14 | – | – | 99.7 % of control | 115 % of control
15 | B15 | – | – | 87.1 % of control | 116 % of control
16 | B16 | – | – | 38.1 % of control | 171 % of control
17 | B17 | – | – | 99 % of control | 104 % of control
18 | B18 | – | – | 97.2 % of control | 116 % of control
19 | B19 | – | – | 86.8 % of control | 105 % of control
20 | B20 | – | – | 97.9 % of control | 119 % of control
